Publication PMC7589338, “The strawberry transcription factor FaRAV1 positively regulates anthocyanin accumulation by activation of FaMYB10 and anthocyanin pathway genes”

Target: T1, FaRAV1 (Fragaria × ananassa, UniProt A0A3Q8TB28 1-301)
T1 sequence: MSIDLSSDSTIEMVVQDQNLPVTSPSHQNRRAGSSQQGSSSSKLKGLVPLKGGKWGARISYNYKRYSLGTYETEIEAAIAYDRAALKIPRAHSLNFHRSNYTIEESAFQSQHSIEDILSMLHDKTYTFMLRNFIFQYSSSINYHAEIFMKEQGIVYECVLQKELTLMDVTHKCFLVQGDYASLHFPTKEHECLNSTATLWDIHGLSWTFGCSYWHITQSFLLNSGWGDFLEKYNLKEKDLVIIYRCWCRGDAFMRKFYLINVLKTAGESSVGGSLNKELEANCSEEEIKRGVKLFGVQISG
Experiment: EMSA; 8 nM biotinylated probe; LightShift Chemiluminescent EMSA kit (Thermo), per manufacturer and Ge et al. 2017; 8 nM biotin probe; binding buffer, pH and temperature not stated
Conditions: protein: recombinant; tags: His (pET-32a; described as N-terminal FaRAV1-His fusion); label: 3'-biotin; blunt

B1: FaMYB10 promoter mutant probe (dsDNA)
DNA 1: AGGGTGGGGACTCGACAGTTTTTAGCTAACTTCCACATGCAATGGATCGAAAT
DNA 2: ATTTCGATCCATTGCATGTGGAAGTTAGCTAAAAACTGTCGAGTCCCCACCCT
binding result: no binding
